Source: US20230158141A1 (YAFEI SHANGHAI BIOLOG MEDICINE SCIENCE AND TECHNOLOGY, published 2023)
Substitutions are numbered along the chain they refer to. Values belong to the binder of their own block, whether it stands above or below them.

Tests used:
IL-10R1-Fc = target: T1, IL-10R1-Fc (UniProt Q13651 22-235, limits assumed); assay: ELISA, IL-10R1-Fc coated
T1 sequence (looked up): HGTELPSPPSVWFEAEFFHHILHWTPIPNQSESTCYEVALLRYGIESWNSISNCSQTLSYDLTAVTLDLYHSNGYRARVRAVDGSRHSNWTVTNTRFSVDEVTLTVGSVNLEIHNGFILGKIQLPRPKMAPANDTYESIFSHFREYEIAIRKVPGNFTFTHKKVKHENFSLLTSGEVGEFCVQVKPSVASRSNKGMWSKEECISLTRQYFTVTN

IL-10R2-Fc/His = target: T2, IL-10R2-Fc/His (UniProt Q08334 20-220, limits assumed); assay: ELISA, IL-10R2-Fc/His coated
T2 sequence (looked up): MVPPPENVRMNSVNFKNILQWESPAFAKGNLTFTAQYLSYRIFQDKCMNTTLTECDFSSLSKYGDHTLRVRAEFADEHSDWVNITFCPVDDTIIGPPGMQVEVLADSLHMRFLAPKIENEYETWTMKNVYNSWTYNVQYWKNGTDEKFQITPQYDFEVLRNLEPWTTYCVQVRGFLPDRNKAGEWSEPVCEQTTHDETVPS

Binding recovery (>60%) (IL-10R1-Fc): 90.1%
B1: IL-10 Thr35Cys-R4-6 (ligand, human, UniProt P22301 19-178, looked up)
chain: SPGQGTQSENSCTHFPGNLPNMLRDLRDAFSRVKCFFQMKDQLDNLLLKESLLEDFKGYLGCQALSEMIQFYLEEVMPQAENQDPDIKAHVNSLGENLKTLRLRLRRCHRFLPCENKSKAVEQVKNAFNKLQEKGIYKAMSEFDIFINYIEAYMTMKIRN
modifications: R4-6 on Cys 35
notes: mature

Binding recovery (>60%) (IL-10R2-Fc/His): 123%
B4: IL-10 Thr35Cys-R4-5 (ligand, human, UniProt P22301 19-178, looked up)
chain: B1 chain
modifications: R4-5 on Cys 35
notes: mature

Decreased fold of binding to ligand after Conjugating with S48 (IL-10R2-Fc/His): 3 fold
B5: IL-10 Lys88Cys-S48 (ligand, human, UniProt P22301 19-178, looked up)
chain: B1 chain with C35T, K88C
modifications: S48 on Cys 88
notes: mature

Binding recovery (>60%) (IL-10R1-Fc): 99.1%
B6: IL-10 Tyr137Cys-R4-4 (ligand, human, UniProt P22301 19-178, looked up)
chain: B1 chain with C35T, Y137C
modifications: R4-4 on Cys 137
notes: mature

Decreased fold of binding to ligand after Conjugating with S48 (IL-10R2-Fc/His): 3 fold
B7: IL-10 Val33Cys-S48 (ligand, human, UniProt P22301 19-178, looked up)
chain: B1 chain with V33C, C35T
modifications: S48 on Cys 33
notes: mature

Decreased fold of binding to ligand after Conjugating with S48 (IL-10R1-Fc): 5 fold
B8: IL-10 Tyr149Cys-S48 (ligand, human, UniProt P22301 19-178, looked up)
chain: B1 chain with C35T, Y149C
modifications: S48 on Cys 149
notes: mature

Decreased fold of binding to ligand after Conjugating with S48 (IL-10R1-Fc): 3 fold
B12: IL-10 Thr155Cys-S48 (ligand, human, UniProt P22301 19-178, looked up)
chain: B1 chain with C35T, T155C
modifications: S48 on Cys 155
notes: mature

Decreased fold of binding to ligand after Conjugating with S48 (IL-10R1-Fc): 3 fold
B15: IL-10 Val91Cys-S48 (ligand, human, UniProt P22301 19-178, looked up)
chain: B1 chain with C35T, V91C
modifications: S48 on Cys 91
notes: mature

Binding recovery (>60%) (IL-10R2-Fc/His): 79.6%
B16: IL-10 Phe36Cys-R4-8 (ligand, human, UniProt P22301 19-178, looked up)
chain: B1 chain with C35T, F36C
modifications: R4-8 on Cys 36
notes: mature

Binding recovery (>60%) (IL-10R1-Fc): 97.2%
B17: IL-10 Val91Cys-R4-5 (ligand, human, UniProt P22301 19-178, looked up)
chain: B1 chain with C35T, V91C
modifications: R4-5 on Cys 91
notes: mature

Binding recovery (>60%) (IL-10R2-Fc/His): 91.4%
B19: IL-10 Val33Cys-R4-7 (ligand, human, UniProt P22301 19-178, looked up)
chain: B1 chain with V33C, C35T
modifications: R4-7 on Cys 33
notes: mature

Decreased fold of binding to ligand after Conjugating with S48 (IL-10R2-Fc/His): 3 fold
B20: IL-10 Leu103Cys-S48 (ligand, human, UniProt P22301 19-178, looked up)
chain: B1 chain with C35T, L103C
modifications: S48 on Cys 103
notes: mature

Decreased fold of binding to ligand after Conjugating with S48 (IL-10R2-Fc/His): 3 fold
B22: IL-10 Phe36Cys-S48 (ligand, human, UniProt P22301 19-178, looked up)
chain: B1 chain with C35T, F36C
modifications: S48 on Cys 36
notes: mature

Binding recovery (>60%) (IL-10R1-Fc): 109%
B23: IL-10 Tyr72Cys-R4-4 (ligand, human, UniProt P22301 19-178, looked up)
chain: B1 chain with C35T, Y72C
modifications: R4-4 on Cys 72
notes: mature

Binding recovery (>60%) (IL-10R1-Fc): 98.1%
B26: IL-10 Thr155Cys-R4-7 (ligand, human, UniProt P22301 19-178, looked up)
chain: B1 chain with C35T, T155C
modifications: R4-7 on Cys 155
notes: mature

Decreased fold of binding to ligand after Conjugating with S48 (IL-10R1-Fc): 5 fold
B27: IL-10 Tyr137Cys-S48 (ligand, human, UniProt P22301 19-178, looked up)
chain: B1 chain with C35T, Y137C
modifications: S48 on Cys 137
notes: mature

More lines, now with the values behind:

B2: IL-10 Gln123Cys-R4-19 (ligand, human, UniProt P22301 19-178, looked up)
chain: B1 chain with C35T, Q123C
modifications: R4-19 on Cys 123
notes: mature
Binding recovery (>60%) (IL-10R2-Fc/His): 96.5%

B3: IL-10 Asp25Cys-R4-11 (ligand, human, UniProt P22301 19-178, looked up)
chain: B1 chain with D25C, C35T
modifications: R4-11 on Cys 25
notes: mature
Binding recovery (>60%) (IL-10R2-Fc/His): 91.5%

B9: IL-10 Arg102Cys-S48 (ligand, human, UniProt P22301 19-178, looked up)
chain: B1 chain with C35T, R102C
modifications: S48 on Cys 102
notes: mature
Decreased fold of binding to ligand after Conjugating with S48 (IL-10R2-Fc/His): 3 fold

B10: IL-10 Ala89Cys-S48 (ligand, human, UniProt P22301 19-178, looked up)
chain: B1 chain with C35T, A89C
modifications: S48 on Cys 89
notes: mature
Decreased fold of binding to ligand after Conjugating with S48 (IL-10R2-Fc/His): 5 fold

B11: IL-10 Leu101Cys-S48 (ligand, human, UniProt P22301 19-178, looked up)
chain: B1 chain with C35T, L101C
modifications: S48 on Cys 101
notes: mature
Decreased fold of binding to ligand after Conjugating with S48 (IL-10R2-Fc/His): 3 fold

B13: IL-10 Asp86Cys-S48 (ligand, human, UniProt P22301 19-178, looked up)
chain: B1 chain with C35T, D86C
modifications: S48 on Cys 86
notes: mature
Decreased fold of binding to ligand after Conjugating with S48 (IL-10R2-Fc/His): 3 fold

B14: IL-10 Glu96Cys-R4-12 (ligand, human, UniProt P22301 19-178, looked up)
chain: B1 chain with C35T, E96C
modifications: R4-12 on Cys 96
notes: mature
Binding recovery (>60%) (IL-10R2-Fc/His): 98%

B18: IL-10 Asn92Cys-R4-18 (ligand, human, UniProt P22301 19-178, looked up)
chain: B1 chain with C35T, N92C
modifications: R4-18 on Cys 92
notes: mature
Binding recovery (>60%) (IL-10R2-Fc/His): 86.4%

B21: IL-10 Glu96Cys-S48 (ligand, human, UniProt P22301 19-178, looked up)
chain: B1 chain with C35T, E96C
modifications: S48 on Cys 96
notes: mature
Decreased fold of binding to ligand after Conjugating with S48 (IL-10R2-Fc/His): 3 fold

B24: IL-10 Glu122Cys-S48 (ligand, human, UniProt P22301 19-178, looked up)
chain: B1 chain with C35T, E122C
modifications: S48 on Cys 122
notes: mature
Decreased fold of binding to ligand after Conjugating with S48 (IL-10R2-Fc/His): 3 fold

B25: IL-10 Asp86Cys-R4-11 (ligand, human, UniProt P22301 19-178, looked up)
chain: B1 chain with C35T, D86C
modifications: R4-11 on Cys 86
notes: mature
Binding recovery (>60%) (IL-10R2-Fc/His): 81%
